Paper doi:10.1101/716654 (bioRxiv, 2019)

Target: the molecule itself
Assay: native gel or EMSA

B1: hNav1.7^GFP (human voltage-gated sodium channel Nav1.7 fused to C-terminal GFP) (natural protein)
chain: not shown
stoichiometry N: 2
